This is an account of results in the supplement of paper PMC10567573.

± gives the standard deviation.

A short description of this series: protein stability index of a GFP-peptide fusion (GPS, HEK-293T) (PSI 1-6); higher = more stable. As to conditions: c terminus: a fixed tail appended.
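Also: 24-mer peptide tiles fused after GFP, lentivirally expressed, FACS-sorted into six equal bins by GFP/DsRed ratio, decoded by Illumina sequencing, PSI is the read-weighted mean bin number.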

On to REPAGRWKEGRPRVEESGSKKEGK [PBXIP1], for which the protein stability index is, setting by setting: (treatment: DMSO) 5.34 ± 0.21; (treatment: MLN4924 1 uM, 8 h) 5.36 ± 0.21.

As for DDDKGDSKETRLTLMEEVLLLGLK [GOLPH3], the protein stability index runs as follows: (treatment: DMSO) 3.16 ± 0.36; (treatment: MLN4924 1 uM, 8 h) 3.65 ± 0.32.

EFSSVGTEMIITKAGRRMFPACRV [TBX6]: the protein stability index came to 2.7 ± 0.21 (treatment: DMSO) and 2.66 ± 0.34 (treatment: MLN4924 1 uM, 8 h).

Turning to MSLKCLAARAVRANDINYQDQIPR [FEM1B], the protein stability index reads like this: (treatment: DMSO) 3.49 ± 0.34; (treatment: MLN4924 1 uM, 8 h) 3.52 ± 0.17.

Consider TKKKKKTIVTDVFQGSMRIFTKKL [USP39], for which the protein stability index by setting is: (treatment: DMSO) 2.49 ± 0.26; (treatment: MLN4924 1 uM, 8 h) 2.83 ± 0.11.

Take TLMTMAIRIIDRALKEDFGFKHRL [PRIM1]: the protein stability index runs as follows: (treatment: DMSO) 2.99 ± 0.62; (treatment: MLN4924 1 uM, 8 h) 2.9 ± 0.54.

With EGGGTSLHVACELARPECLFLLLG [ANKRD9], the protein stability index came to 2.03 ± 0.091 (treatment: DMSO) and 2.06 ± 0.67 (treatment: MLN4924 1 uM, 8 h).

In the case of LQMKLEKLREKERKKEAKRKISSL [FAM50A], the protein stability index (treatment: DMSO) is 3.71 ± 0.45 and the protein stability index (treatment: MLN4924 1 uM, 8 h) is 3.98 ± 0.53.

In the case of KRRKDSEEEAASPEGKRVPKRLRC [FANCE], the protein stability index stood at 5.08 ± 0.3 (treatment: DMSO) and 5.12 ± 0.26 (treatment: MLN4924 1 uM, 8 h).

With TDQLEFTVEPRLLVADLLYWKDTR [RTN2], the protein stability index (treatment: DMSO) worked out at 2.43 ± 0.23 and the protein stability index (treatment: MLN4924 1 uM, 8 h) was 2.54 ± 0.33.

As to KTNLDGMITVQLPEVPANENIKGY [PTPRD], the protein stability index reads like this: (treatment: DMSO) 4.12 ± 0.4; (treatment: MLN4924 1 uM, 8 h) 4.24 ± 0.28.

With EEDENGLPRRRGLRKKKTTKLRLE [NEUROD6], the protein stability index is 4.9 ± 0.28 (treatment: DMSO) and 4.94 ± 0.35 (treatment: MLN4924 1 uM, 8 h).

Consider PRMLRESGHGDAHLQEYAGNFQGI [FATE1], for which the protein stability index (treatment: DMSO) is 4 ± 0.24 and the protein stability index (treatment: MLN4924 1 uM, 8 h) was 4.22 ± 0.13.

Turning to WIKEEAAERYLYFPNWAMALLITL [SLC6A17], the protein stability index by setting is: (treatment: DMSO) 2.67 ± 0.79; (treatment: MLN4924 1 uM, 8 h) 2.81 ± 0.57.

Regarding TRWYRAPELLVGDTQYGSSVDIWA [CDKL4], the protein stability index reads like this: (treatment: DMSO) 1.97 ± 0.59; (treatment: MLN4924 1 uM, 8 h) 2.26 ± 0.39.

Regarding GGGREPQGLAEKSPLQTIGEEQTQ [WDR41], the protein stability index (treatment: DMSO) turned out to be 5.31 ± 0.26 and the protein stability index (treatment: MLN4924 1 uM, 8 h) is 5.58 ± 0.17.

Regarding EDLELKKKIFAQLDSIIDDRVILS [CRYL1], the protein stability index runs as follows: (treatment: DMSO) 3.28 ± 0.26; (treatment: MLN4924 1 uM, 8 h) 3.01 ± 0.36.

For the sequence VQDWYHFHYVDILALLPAAWEDSH [SCNN1D], the protein stability index (treatment: DMSO) is 2.77 ± 0.61 and the protein stability index (treatment: MLN4924 1 uM, 8 h) turned out to be 2.67 ± 0.67.

Regarding SEPYKLLPGAVATIVKPLSAIPQP [HNF4A], the protein stability index is, setting by setting: (treatment: DMSO) 3.44 ± 0.3; (treatment: MLN4924 1 uM, 8 h) 3.59 ± 0.16.

KAENARLVVNIDNAKLASDDFRSK [KRT34] came in with a protein stability index (treatment: DMSO) of 4.62 ± 0.16 and a protein stability index (treatment: MLN4924 1 uM, 8 h) of 4.71 ± 0.14.

Take AMSTLGVIEAIAQITVKALPKPPG [PTPRD]: the protein stability index by setting is: (treatment: DMSO) 2.21 ± 0.17; (treatment: MLN4924 1 uM, 8 h) 2.16 ± 0.26.

Consider EGYILREDGKTCRRKDVCQAIDHG [MATN2], for which the protein stability index amounted to 4.31 ± 0.63 (treatment: DMSO) and 4.44 ± 0.22 (treatment: MLN4924 1 uM, 8 h).

On to QLTGHQRIHSGEEPHKCPECGKRF [ZNF449], for which the protein stability index is 4.01 ± 0.28 (treatment: DMSO) and 4.82 ± 0.38 (treatment: MLN4924 1 uM, 8 h).

As to KYEAQNIVNSTEESDDAFDTVTIP [IQUB], the protein stability index (treatment: DMSO) stood at 5.27 ± 0.22 and the protein stability index (treatment: MLN4924 1 uM, 8 h) is 5.09 ± 0.45.

QEKEELRELNDRLAVYIDKVRSLE [LMNB1]: the protein stability index runs as follows: (treatment: DMSO) 3.72 ± 0.31; (treatment: MLN4924 1 uM, 8 h) 3.9 ± 0.2.

THIMKGEDDALSDKHGCPAYVSPE [TRIB1]: the protein stability index by setting is: (treatment: DMSO) 5.12 ± 0.14; (treatment: MLN4924 1 uM, 8 h) 4.91 ± 0.22.

GQEYAAKIINTKKLSARDHQKLER [CAMK2D]: the protein stability index was determined as 3.96 ± 0.58 (treatment: DMSO) and 3.82 ± 0.096 (treatment: MLN4924 1 uM, 8 h).

Take KKKSILMKQLQQQQHSDKTSLQGL [ISL2]: the protein stability index (treatment: DMSO) was 3.86 ± 0.2 and the protein stability index (treatment: MLN4924 1 uM, 8 h) was determined as 4.04 ± 0.27.

Consider SGLQGLPECTRCGHGIVGTIVKAR [PDLIM4], for which the protein stability index came to 2.51 ± 0.32 (treatment: DMSO) and 2.64 ± 0.34 (treatment: MLN4924 1 uM, 8 h).

Take ERIRLLRQKREAAARKKYNLLQDS [C18orf25]: the protein stability index was 3.25 ± 0.34 (treatment: DMSO) and 3.6 ± 0.36 (treatment: MLN4924 1 uM, 8 h).

On to TLEALGYKGPLLEEQALTKAAEGG [FAM98B], for which the protein stability index was found to be 4.61 ± 0.23 (treatment: DMSO) and 4.66 ± 0.083 (treatment: MLN4924 1 uM, 8 h).

TWMFFFMMCVAERTYKQRFLFAKL [PHTF1]: the protein stability index was found to be 2.83 ± 0.22 (treatment: DMSO) and 2.92 ± 0.36 (treatment: MLN4924 1 uM, 8 h).

For the sequence NFRDLVRDLEKQKEEVRAALEQRE [TRIM29], the protein stability index (treatment: DMSO) is 4.54 ± 0.11 and the protein stability index (treatment: MLN4924 1 uM, 8 h) came to 4.43 ± 0.21.

Consider LEIDSGVITLDPQTASRSLVLSED [TRIM15], for which the protein stability index runs as follows: (treatment: DMSO) 4.69 ± 0.19; (treatment: MLN4924 1 uM, 8 h) 4.74 ± 0.32.

Sequence QKKDCVPLMKPHRPWADTCSSSGK [HESX1] returned a protein stability index (treatment: DMSO) of 3.49 ± 0.52 and a protein stability index (treatment: MLN4924 1 uM, 8 h) of 3.67 ± 0.53.

Regarding RTDEELQPPTTTVARSGTPAVENK [PLK2], the protein stability index came out at 5.42 ± 0.6 (treatment: DMSO) and 5.45 ± 0.27 (treatment: MLN4924 1 uM, 8 h).
